Experimental data from US6613957 (UAB RESEARCH FOUNDATION, dated 2003).

Target: T1, human β-globin polypeptide (product of the human β-globin transgene) (human, UniProt P68871 2-147)
T1 construct: Two copies stand in each hemoglobin tetramer (α2β2); also called hβ
Test: nondenaturing isoelectric focusing of transgenic mouse hemolysate; band excised and its chains identified on a denaturing cellulose acetate strip
Source text: Human α and β-globin mRNA detected in lung is the result of incomplete perfusion. Mouse α and β-globin mRNA are also observed in this non-erythroid tissue. (B) Nondenaturing, isoelectric focusing of transgenic mouse hemolysates. Hemolysates of control mouse (lane 1) human (lane 4) and transgenic mouse (lanes 2 and 3) blood were run on a native agarose isoelectric focusing gel and photographed without staining. (C) Denaturing cellulose acetate strip electrophoresis of transgenic mouse hemogobins. Hemoglobins were denatured in alkaline-urea buffer, electrophoresed on cellulose acetate strips, and stained with imido black.
To determine whether complete human hemoglobins were formed, we separated hemolysates of the blood of animals from two different transgenic lines by non-denaturing ioslectric focusing (IEF) (FIG. 14B). The first lane is a mouse control and the last lane is a normal human sample. The predominant band in each of the controls is the major adult hemoglobin, mouse α_2β_2 or human α_2β_2, respectively.

T1 sequence (P68871 2-147 limits assumed): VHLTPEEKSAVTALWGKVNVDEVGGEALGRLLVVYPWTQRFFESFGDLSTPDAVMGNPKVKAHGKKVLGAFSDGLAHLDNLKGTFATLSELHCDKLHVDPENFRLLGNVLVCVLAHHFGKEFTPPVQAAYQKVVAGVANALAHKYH

B1: human α-globin polypeptide (product of the human α1-globin transgene) (other)
chain: not shown
notes: Two copies stand in each hemoglobin tetramer (α2β2); also called hα
Does B1 bind?
Result: binds

B2: mouse α-globin polypeptide (endogenous) (other)
chain: not shown
notes: Endogenous chain in the red blood cells of the transgenic mice; also called mα
Does B2 bind?
Result: binds
